From patent US20190336574A1 (TRUSTEES OF PRINCETON UNIVERSITY, published 2019)

Key:
[1] = biological target: His-SND1 (16-339), SN1/2 domains, wild type (human) (UniProt Q7KZF4); assay: GST pull-down on glutathione resin, SDS-PAGE, Coomassie blue; normalised percentage of binding, mean±SEM of three experiments
[2] = biological target: T1, His6-SND1ΔC (SND1 residues 1-339) (human, UniProt Q7KZF4 1-339); assay: GST pull-down of His6-SND1ΔC, SDS-PAGE, Coomassie
T1 construct: not shown: N-terminal His tag (His6, His8 or His) with TEV site, pQlink vector
T1 sequence: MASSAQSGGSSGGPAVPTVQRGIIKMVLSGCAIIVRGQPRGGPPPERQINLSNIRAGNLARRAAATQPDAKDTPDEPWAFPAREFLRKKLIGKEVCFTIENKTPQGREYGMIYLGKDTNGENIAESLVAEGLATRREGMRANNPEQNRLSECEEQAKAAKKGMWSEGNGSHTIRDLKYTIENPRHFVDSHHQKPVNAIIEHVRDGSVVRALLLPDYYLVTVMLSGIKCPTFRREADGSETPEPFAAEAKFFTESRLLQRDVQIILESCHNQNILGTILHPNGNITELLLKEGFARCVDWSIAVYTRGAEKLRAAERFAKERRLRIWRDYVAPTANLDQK
From the text: FIGS. 7A-E represents determination of key regions and residues mediating the MTDH-SND1 interaction. (FIG. 7A) Schematics of MTDH fragments and mutants with indicated SND1-binding capability. + indicates binding and − indicates no binding based on results shown below. Two putative nuclear localization signals are residues 432-451 for NLS2 and residues 561-580 for NLS3. […] (FIG. 7B) Pulldown of His6-SND1ΔC by GST-tagged MTDH fragments with indicated boundaries. The bound proteins were examined by SDS-PAGE and visualized by Coomassie blue staining. […] For (FIG. 7B) and (FIG. 7C), 1/10 of the His6-SND1ΔC input was shown, and GST alone was used as a negative control. Representative results of 3 independent experiments are shown. (FIG. 7D, FIG. 7E) Lysates from HEK293T cells expressing the indicated ectopic human SND1, AGO2 or MTDH were immunoprecipitated with anti-Myc and immunoblotted with the indicated antibodies.
TPM1 comprises mutations D389R, D393R and W394D. TPM2 comprises mutations E399R, E400R and W401D. TPM3 comprises mutations W404D, D406R and E407R. […] The mutations are also set out in Table 3.

[3] = biological target: T2, murine SND1, wild type (mouse, UniProt Q78PY7 1-910); assay: co-IP (anti-MTDH) from reconstituted PyMT;Mtdh-/- tumor cells, western blot
T2 construct: Endogenous protein of murine PyMT mammary tumor cells; also called SND1 (in PyMT tumor cells); WT shRNA-resistant murine SND1
T2 sequence (looked up): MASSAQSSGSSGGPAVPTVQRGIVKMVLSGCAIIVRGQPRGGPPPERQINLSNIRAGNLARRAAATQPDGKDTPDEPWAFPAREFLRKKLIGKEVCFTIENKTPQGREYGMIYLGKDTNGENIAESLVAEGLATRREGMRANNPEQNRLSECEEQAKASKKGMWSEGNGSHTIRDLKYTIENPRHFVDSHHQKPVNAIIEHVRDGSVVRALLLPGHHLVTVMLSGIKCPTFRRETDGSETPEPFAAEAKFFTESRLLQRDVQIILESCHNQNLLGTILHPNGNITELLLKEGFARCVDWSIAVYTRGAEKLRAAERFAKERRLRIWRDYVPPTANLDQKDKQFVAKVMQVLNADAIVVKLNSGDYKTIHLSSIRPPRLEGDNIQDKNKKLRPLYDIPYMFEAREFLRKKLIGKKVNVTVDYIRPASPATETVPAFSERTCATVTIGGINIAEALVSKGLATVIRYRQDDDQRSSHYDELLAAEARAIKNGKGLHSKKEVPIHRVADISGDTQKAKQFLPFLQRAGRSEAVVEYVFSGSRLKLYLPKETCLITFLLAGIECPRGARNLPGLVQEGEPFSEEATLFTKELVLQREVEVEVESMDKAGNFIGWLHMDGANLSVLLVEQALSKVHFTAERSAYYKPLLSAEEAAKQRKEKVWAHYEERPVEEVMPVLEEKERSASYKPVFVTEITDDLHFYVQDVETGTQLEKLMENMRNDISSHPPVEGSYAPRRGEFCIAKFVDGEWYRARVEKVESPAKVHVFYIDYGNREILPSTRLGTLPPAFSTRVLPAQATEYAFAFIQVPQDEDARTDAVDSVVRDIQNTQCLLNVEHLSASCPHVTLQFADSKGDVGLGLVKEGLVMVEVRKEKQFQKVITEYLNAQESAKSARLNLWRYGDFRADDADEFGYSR
From the text: IP lysates were subjected to western blotting with indicated antibodies.
In particular, genetic deletion of Mtdh in mice impairs the tumor-initiating potential of mammary epithelial cells transformed by diverse oncogenes (PyMT, Wnt, ErbB2) or carcinogen stimuli, and this defect can be readily rescued by reintroducing MTDH into Mtdh-knockout (Mtdh−/−) tumor cells by lentiviral transduction. To test whether interacting with SND1 is important for the tumor-initiating effect of MTDH, the murine form of WT or mutant MTDH (W394A or W401A, corresponding mutations in mouse are W391A, W398A) was stably expressed in mammary tumor cells from PyMT;Mtdh−/− mice. […] To examine how MTDH mutations affect tumor formation in vivo, PyMT;Mtdh−/− tumor cells were orthotopically transplanted into the mammary fat pads of WT recipient mice. […] Furthermore, the size of tumors formed by PyMT;Mtdh−/− tumor cells reconstituted with mutant MTDH was much smaller than that with WT MTDH (FIG. 23D-E).

B1: GST-MTDH (364-582) W401A (protein, not shown: a dimerising Fc or GST)
chain: YQWDVSRNQPYIDDEWSGLNGLSSADPNSDWNAPAEEAGNWVDEERASLLKSQEPIPDDQKVSDDDKEKGEGALPTGKSKKKKKKKKKQGEDNSTAQDTEELEKEIREDLPVNTSKTRPKQEKAFSLKTISTSDPAEVLVKNSQPIKTLPPATSTEPSVILSKSDSDKSSSQVPPILQETDKSKSNTKQNSVPPSQTKSETSWESPKQIKKKKKARRET
In the case of B1, the % Maximum binding [1] is reported as 6%.

B2: GST-MTDH (364-582) W394D (protein, not shown: a dimerising Fc or GST)
chain: YQWDVSRNQPYIDDEWSGLNGLSSADPNSDDNAPAEEWGNWVDEERASLLKSQEPIPDDQKVSDDDKEKGEGALPTGKSKKKKKKKKKQGEDNSTAQDTEELEKEIREDLPVNTSKTRPKQEKAFSLKTISTSDPAEVLVKNSQPIKTLPPATSTEPSVILSKSDSDKSSSQVPPILQETDKSKSNTKQNSVPPSQTKSETSWESPKQIKKKKKARRET
In the case of B2, the % Maximum binding [1] is reported as 4%.

B3: GST-MTDH (364-582) TPM1 (D389R, D393R, W394D) (other)
chain: YQWDVSRNQPYIDDEWSGLNGLSSARPNSRDNAPAEEWGNWVDEERASLLKSQEPIPDDQKVSDDDKEKGEGALPTGKSKKKKKKKKKQGEDNSTAQDTEELEKEIREDLPVNTSKTRPKQEKAFSLKTISTSDPAEVLVKNSQPIKTLPPATSTEPSVILSKSDSDKSSSQVPPILQETDKSKSNTKQNSVPPSQTKSETSWESPKQIKKKKKARRET
notes: not shown: N-terminal GST tag with TEV site, pQlink vector
B3: no binding [2].

B4: GST-MTDH (364-582) TPM2 (E399R, E400R, W401D) (other)
chain: YQWDVSRNQPYIDDEWSGLNGLSSADPNSDWNAPARRDGNWVDEERASLLKSQEPIPDDQKVSDDDKEKGEGALPTGKSKKKKKKKKKQGEDNSTAQDTEELEKEIREDLPVNTSKTRPKQEKAFSLKTISTSDPAEVLVKNSQPIKTLPPATSTEPSVILSKSDSDKSSSQVPPILQETDKSKSNTKQNSVPPSQTKSETSWESPKQIKKKKKARRET
notes: as for B3
B4: no binding [2].

B5: GST-MTDH (1-289) (other)
chain: MAARSWQDELAQQAEEGSARLREMLSVGLGFLRTELGLDLGLEPKRYPGWVILVGTGALGLLLLFLLGYGWAAACAGSRKKRRSPPRKREEAAAVPAAAPDDLALLKNLRSEEQKKKNRKKLSEKPKPNGRTVEVAEGEAVRTPQSVTAKQPPEIDKKNEKSKKNKKKSKSDAKAVQNSSRHDGKEVDEGAWETKISHREKRQQRKRDKVLTDSGSLDSTIPGIENTITVTTEQLTTASFPVGSKKNKGDSHLNVQVSNFKSGKGDSTLQVSSGLNENLTVNGGGWNEK
notes: as for B3
B5: no binding [2].

B6: murine MTDH TPM2 (E396R, E397R, W398D) (other, mouse, UniProt Q80WJ7 1-579, looked up)
chain: MAARSWQDELAQQAEEGSARLRELLSVGLGFLRTELGLDLGLEPKRYPGWVILVGTGALGLLLLFLLGYGWAAACAGARKKRRSPPRKREEAAPPTPAPDDLAQLKNLRSEEQKKKNRKKLPEKPKPNGRTVEVPEDEVVRNPRSITAKQAPETDKKNEKSKKNKKKSKSDAKAVQNSSRHDGKEVDEGAWETKISHREKRQQRKRDKVLTDSGSLDSTIPGIENIITVTTEQLTTASFPVGSKKNKGDSHLNVQVSNFKSGKGDSTLQVSSRLNENLTVNGGGWSEKSVKLSSQLSEEKWNSVPPASAGKRKTEPSAWTQDTGDTNANGKDWGRNWSDRSIFSGIGSTAEPVSQSTTSDYQWDVSRNQPYIDDEWSGLNGLSSADPSSDWNAPARRDGNWVDEDRASLLKSQEPISNDQKVSDDDKEKGEGALPTGKSKKKKKKKKKQGEDNSHTQDTEDLEKDTREELPVNTSKARPKQEKACSLKTMSTSDPAEVLIKNSQPVKTLPPAISAEPSITLSKGDSDNSSSQVPPMLQDTDKPKSNAKQNSVPPSQTKSETNWESPKQIKKKKKARRET
notes: also called TPM2 (murine form)
B6: no binding [3].

B7: murine MTDH W398A (printed as W401A in human numbering) (other, mouse, UniProt Q80WJ7 1-579, looked up)
chain: MAARSWQDELAQQAEEGSARLRELLSVGLGFLRTELGLDLGLEPKRYPGWVILVGTGALGLLLLFLLGYGWAAACAGARKKRRSPPRKREEAAPPTPAPDDLAQLKNLRSEEQKKKNRKKLPEKPKPNGRTVEVPEDEVVRNPRSITAKQAPETDKKNEKSKKNKKKSKSDAKAVQNSSRHDGKEVDEGAWETKISHREKRQQRKRDKVLTDSGSLDSTIPGIENIITVTTEQLTTASFPVGSKKNKGDSHLNVQVSNFKSGKGDSTLQVSSRLNENLTVNGGGWSEKSVKLSSQLSEEKWNSVPPASAGKRKTEPSAWTQDTGDTNANGKDWGRNWSDRSIFSGIGSTAEPVSQSTTSDYQWDVSRNQPYIDDEWSGLNGLSSADPSSDWNAPAEEAGNWVDEDRASLLKSQEPISNDQKVSDDDKEKGEGALPTGKSKKKKKKKKKQGEDNSHTQDTEDLEKDTREELPVNTSKARPKQEKACSLKTMSTSDPAEVLIKNSQPVKTLPPAISAEPSITLSKGDSDNSSSQVPPMLQDTDKPKSNAKQNSVPPSQTKSETNWESPKQIKKKKKARRET
notes: also called W401A (murine form)
B7: no binding [3].

B8: murine MTDH W391A (printed as W394A in human numbering) (other, mouse, UniProt Q80WJ7 1-579, looked up)
chain: MAARSWQDELAQQAEEGSARLRELLSVGLGFLRTELGLDLGLEPKRYPGWVILVGTGALGLLLLFLLGYGWAAACAGARKKRRSPPRKREEAAPPTPAPDDLAQLKNLRSEEQKKKNRKKLPEKPKPNGRTVEVPEDEVVRNPRSITAKQAPETDKKNEKSKKNKKKSKSDAKAVQNSSRHDGKEVDEGAWETKISHREKRQQRKRDKVLTDSGSLDSTIPGIENIITVTTEQLTTASFPVGSKKNKGDSHLNVQVSNFKSGKGDSTLQVSSRLNENLTVNGGGWSEKSVKLSSQLSEEKWNSVPPASAGKRKTEPSAWTQDTGDTNANGKDWGRNWSDRSIFSGIGSTAEPVSQSTTSDYQWDVSRNQPYIDDEWSGLNGLSSADPSSDANAPAEEWGNWVDEDRASLLKSQEPISNDQKVSDDDKEKGEGALPTGKSKKKKKKKKKQGEDNSHTQDTEDLEKDTREELPVNTSKARPKQEKACSLKTMSTSDPAEVLIKNSQPVKTLPPAISAEPSITLSKGDSDNSSSQVPPMLQDTDKPKSNAKQNSVPPSQTKSETNWESPKQIKKKKKARRET
notes: also called W394A (murine form)
B8: no binding [3].
